# Results as given in article PMC10952462, “Commentary on “The road to reliable peptide assays is paved with good guidelines”” (Clinical Endocrinology, 2023).
# Key:
# [1] = collection tubes containing EDTA; ref 3 (Toräng et al.); cited from earlier work
# Source text: (§1) Maurer et al. have quoted Toräng et al.'s study on PYY's major cleaving sites but disregarded the outcome from their study of the inhibitory effects of EDTA on metalloendoproteases, neuroendopeptidase (NEP) and Meprin β.[3] […] We have studied the stability of both PYY species with our inhibitor mix containing DPP4 inhibitor and Aprotinin, where we spiked PYY1 –36 and PYY3 –36 into plasma EDTA and LH from three different volunteers.
# [2] = Stability of PYY1-36 and PYY3-36 in EDTA and lithium heparin plasma (LC-MS/MS assay validation); type: in vitro ADME, human; settings: for degradation in plasma at 4°C / degradation in plasma at room temperature / mean percentage difference in concentration, overall and between all tested sample sets: EDTA or LH plasma; for degradation in plasma at 4°C: 3 h time-point at 4°C; for degradation in plasma at 4°C / degradation in plasma at room temperature: with or without inhibitors (DPP4 inhibitor and Aprotinin), spiked samples and healthy volunteer samples, triplicate QCs (low and high); for degradation in plasma at room temperature: 3 h time-point at room temperature (19°C); for mean percentage difference in concentration, overall and between all tested sample sets: presence versus absence of inhibitors, 3 h at 19°C or 4°C, mean of injections of triplicate QCs (low and high); for differences in concentrations with only DPP4 inhibitor and Aprotinin present: spiked into plasma EDTA and LH from three different volunteers, inhibitor mix of DPP4 inhibitor and Aprotinin
# Procedure: We have verified stability of PYY1 –36 and PYY3 –36 at preanalytical, analytical and post‐analytical stages of the assay. At preanalytical stage the whole blood is collected in prechilled lithium heparin (LH) or ethylenediaminetetraacetic acid (EDTA) tubes and containing evaluated in‐house inhibitors (DPP4 inhibitor and Aprotinin). The sample is centrifuged immediately at 4°C and flash‐frozen on dry ice or transferred immediately to a −80°C freezer. The samples are kept at −80°C until being thawed once only for analysis.
# We deemed our protease inhibitors sufficient for maintaining stability of PYY1 –36 and PYY3 –36 and inhibiting peptide degradation.
# as §1
# Furthermore, we have verified the stability of both species of PYY in both EDTA and LH plasma under the following conditions: (1) freezing and thawing up to a second cycle; (2) incubation at 4°C for up to 4 h; (3) long‐term storage (6 months) at −80°C; (4) postextraction, during storage in the autosampler at 4°C. We have verified the stability of our stock and working stock solutions for up to 7 months, stored at […]. We would state that it is a matter of standard operating procedure that we store these solutions at −80°C and discard these at the end of the day of the run after thawing, affording a safety margin. Last, our assay has been validated both with plasma‐based calibrants and QCs, and cross‐validated in a surrogate matrix (20BMA). We also validated matrix effects (ME) in spiked plasma EDTA and plasma LH. Mean percentage ME for PYY1 –36 was 100.7% and for PYY3 –36, 111% in plasma LH. EDTA ME results were reported previously.[2]
Substance,risk of PYY degradation in collected blood [1],degradation in plasma at 4°C [2],degradation in plasma at room temperature [2],"mean percentage difference in concentration, overall and between all tested sample sets [2] [%]",differences in concentrations with only DPP4 inhibitor and Aprotinin present [2]
"PYY: peptide YY, species not specified, as studied by Toräng et al.",small,–,–,–,–
peptide YY1 –36 [PYY1 –36],–,no degradation,no degradation,≤ 10,did not detect any significant differences
peptide YY3‐36 [PYY3 –36],–,no degradation,no degradation,≤ 10,did not detect any significant differences
